Assay results taken from the RNAGym collection of RNA variant scans (doi:10.7554/elife.90254).

B1: LINE1-full (parent)
chain: UACGUAGGUGGUUUUCCCCUGAUAGUGCUAAGGGGGCCUGGAAGUUUGGACUGGGCAGAGCUCAACACAGCGUGGCAAAGUGGCUGUGGCUAGACUGCCUCUCUGGAUUCCUCGUCACUCAGCAGGGCAUCUCUGAGAGAAAUGCC

Variants of: B1
Assay: self-cleavage, relative activity (ratio to wild type); higher = more cleavage; in vitro, sequencing; the parent is a self-cleaving ribozyme

Row | Variant | self-cleavage
1 | C3U A140G | 0.97
2 | C3G A78G | 0.6
3 | C3A U12G | 0.81
4 | A2G C17A | 1.56
5 | C3G A79G | 1.04
6 | A2U U73A | 0.45
7 | A2U U73C | 0.56
8 | U1C U45C | 0.91
9 | U1C U45G | 0.48
10 | A2C A138G | 2.07
11 | A2G A57G | 0.68
12 | A2U U23C | 0
13 | U1C U52G | 1.33
14 | U1C U52C | 1.38
15 | U1A C37G | 0.74
16 | C3A U39A | 0.96
17 | A2C C56U | 0.11
18 | C3A G32A | 0.88
19 | A2G C118G | 1.04
20 | A2G U12G | 0.95
21 | U1C G7U | 0.75
22 | U1C U20C | 0.79
23 | A2G C37U | 0.89
24 | U1C U81A | 1.64

Row | Variant | self-cleavage
25 | C3U U87A | 0.18
26 | C3U U87C | 0.12
27 | C3A A94G | 0.3
28 | C3U U26G | 0.87
29 | C3U U26C | 1.01
30 | C3U U26A | 1.04
31 | A2C A31G | 1.34
32 | U1C A43C | 0.37
33 | U1C A43G | 0.79
34 | U1C A43U | 0.75
35 | A2G G36A | 0.7
36 | C3U U73C | 1.49
37 | C3U U73A | 0.91
38 | U1G A78G | 1.25
39 | U1C A138U | 0.57
40 | U1C U87A | 0.23
41 | C3U U13C | 0.74
42 | U1C G8A | 0.49
43 | U1A U14A | 0.89
44 | U1A U14C | 1.71
45 | U1C U102C | 1.03
46 | A2G U132G | 1.6
47 | A2U U15G | 0.51
48 | U1C A57U | 0.09

Row | Variant | self-cleavage
49 | U1C U130C | 1.04
50 | C3U U39C | 0.79
51 | U1C G89U | 0
52 | U1A C3U | 0
53 | U1C A59G | 0.1
54 | U1C A59U | 0.56
55 | A2G C66U | 0.4
56 | A2G | 0.85
57 | A2U | 0.98
58 | A2C | 1.24
59 | U1C C17U | 0.87
60 | U1A A129G | 1.47
61 | C3A G127A | 0.43
62 | A2G G27A | 0.19
63 | U1C U104A | 0.75
64 | U1C U104C | 0.68
65 | A2G A140G | 0.94
66 | U1A A142G | 1.19
67 | U1C U143A | 1.35
68 | U1C G41A | 0.52
69 | A2U U104A | 0.26
70 | A2U C56A | 0.03
71 | A2G U96C | 0.22
72 | A2G U96G | 0.12

Row | Variant | self-cleavage
73 | C3U A129G | 1.62
74 | U1C U5C | 0.87
75 | U1C U119C | 0.78
76 | C3U U9A | 0.84
77 | A2G C84A | 0.26
78 | C3U A69G | 0.53
79 | C3A U85A | 0.13
80 | U1A U9A | 1.15
81 | A2U U119C | 1.26
82 | U1A U100C | 1.18
83 | U1C U12A | 0.95
84 | A2U A59G | 0
85 | U1A A78G | 0.86
86 | U1A A78C | 1.65
87 | C3G U52A | 0.8
88 | A2G U9A | 0.56
89 | U1C C116A | 1.42
90 | U1C C133U | 1.16
91 | U1C U23C | 0.98
92 | U1C U23A | 0.56
93 | A2G U104A | 0.95
94 | A2G U62A | 0.09
95 | A2G U62C | 0.09
96 | C3U C123U | 0.63

Row | Variant | self-cleavage
97 | A2U U115A | 0.77
98 | A2C A57U | 0.11
99 | U1C G139U | 0.74
100 | U1C G4A | 0.46
101 | A2U U143A | 1
102 | U1C U29G | 1.45
103 | U1C A136G | 1.08
104 | A2G U112C | 0.87
105 | A2U A138G | 1.06
106 | A2G A117U | 1
107 | U1G U39C | 0.72
108 | U1C A67C | 0.09
109 | U1A G34C | 1.08
110 | U1A U20C | 1.64
111 | U1C A42G | 0.92
112 | A2G A78G | 1.04
113 | A2G U15G | 0.99
114 | U1A A141G | 1.43
115 | U1C C68U | 0.13
116 | A2G A59G | 0.39
117 | C3U A31U | 0.37
118 | U1C C76U | 1.56
119 | A2G U87A | 0.32
120 | C3U A117C | 0.75

Row | Variant | self-cleavage
121 | C3U A117G | 0.45
122 | C3U A117U | 1.31
123 | A2G A136G | 0.82
124 | A2G U115C | 1.43
125 | A2U U52C | 0.67
126 | U1C U132C | 0.97
127 | A2C U26C | 1.05
128 | A2G A129G | 0.46
129 | C3G A141G | 0.66
130 | A2U U87A | 0.08
131 | A2G G53A | 0.74
132 | U1C C98U | 0.13
133 | C3U U23A | 0.71
134 | U1C A141U | 0.71
135 | U1C A141G | 0.97
136 | C3U U15C | 0.45
137 | U1C C90A | 0
138 | C3U C131U | 1.02
139 | A2G U13C | 0.64
140 | A2G U13A | 0.99
141 | C3A U109C | 0.53
142 | U1C U14G | 0.36
143 | U1A U109A | 1.56
144 | U1A U109C | 1.05

Row | Variant | self-cleavage
145 | C3A A124U | 0.6
146 | U1C U39A | 0.75
147 | U1C U9A | 0.75
148 | A2U A121G | 1.53
149 | A2U A79G | 1.45
150 | U1C A78C | 1.46
151 | U1C A78G | 1.38
152 | C3A C98A | 0.28
153 | U1A U15C | 2.17
154 | C3A A67G | 0.56
155 | C3U A142G | 0.47
156 | U1G U100C | 1.1
157 | C3U A77G | 0.71
158 | C3U A77U | 0
159 | A2G A24G | 0.71
160 | C3U U102A | 1.1
161 | U1A G33U | 0.96
162 | A2G A43U | 1.34
163 | U1A A77G | 1.66
164 | A2G C38A | 1.05
165 | U1C C146U | 1.08
166 | C3U A57U | 0.17
167 | A2U A43G | 1.07
